These are literature values, as cited in paper PMC3044768.

The target of data set [1] is SARS 3CLpro 3CLpro (Severe acute respiratory syndrome coronavirus) (UniProt P0C6X7). Conditions: cited from earlier work.
For data set [2] the target is unchanged. The settings on record: cited from earlier work. The source holds these as a separate data set.

Like-named read-outs stand apart in the source and are kept apart here.

Usually Kd stands for the equilibrium constant for the complex coming apart. As for “SARS 3CLpro 3CLpro (from UniProt P0C6X7)”, the Kd in data set [1] was 5.2 µM; in data set [2], 12.7 µM.
